Consider three molecules from patent US20250263441A1 (published 2025).

For this test, the target named is Toll-Like Receptor 2 (TLR2). Kind of test: SPR.
Chain of Toll-Like Receptor 2 (TLR2) (chain, as listed by the source): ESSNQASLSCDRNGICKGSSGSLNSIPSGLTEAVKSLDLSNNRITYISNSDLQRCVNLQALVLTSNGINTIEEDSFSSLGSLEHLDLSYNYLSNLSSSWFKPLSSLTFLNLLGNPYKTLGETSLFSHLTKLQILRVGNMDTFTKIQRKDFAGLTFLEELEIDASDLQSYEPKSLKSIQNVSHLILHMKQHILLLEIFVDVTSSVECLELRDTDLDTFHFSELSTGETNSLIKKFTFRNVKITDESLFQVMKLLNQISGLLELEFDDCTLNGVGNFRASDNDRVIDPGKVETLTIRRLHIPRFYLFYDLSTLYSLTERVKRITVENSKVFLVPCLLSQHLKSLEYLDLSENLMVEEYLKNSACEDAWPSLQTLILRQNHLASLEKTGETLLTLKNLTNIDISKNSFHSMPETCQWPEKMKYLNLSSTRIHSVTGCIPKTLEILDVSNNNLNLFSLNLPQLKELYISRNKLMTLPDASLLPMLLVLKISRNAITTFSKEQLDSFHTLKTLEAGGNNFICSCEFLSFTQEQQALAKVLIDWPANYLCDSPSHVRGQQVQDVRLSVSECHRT
Molecule GIFKKITGKCFKWIK (Chemically synthesized variant of AMP5) [AMP5-L10C] had a Kd of 834 nM.

In turn, GIFKKIAGKLFKWIK (Chemically synthesized variant of AMP5) [AMP5-T7A] came in with a Kd of 373 nM. The figure for GIFKKITGKLFKWIK (also called polypeptide 1) [AMP5] is 543 nM.
